Experimental data: patent US20170157165, “APTAMER FOR FGF2 AND USE THEREOF” (RIBOMIC INC., published 2017)
Substitutions are numbered along the chain they refer to.

B1: aptamer ID 8 (ssRNA)
RNA: CGGAUACUAGGGCAUUAAUGUUACCAGUGUAGUCCG
modifications: 2'-F at U8,U16,U21,U28,U30; 2'-OH at G12,G27,G29; all others 2'-OMe; 5' NH2; 3' idT
B2: aptamer ID 9 (ssRNA)
RNA: B1 RNA with G2C, C35G
modifications: 2'-F at U8,U16,U21,U28,U30; 2'-OH at G12,G27,G29; all others 2'-OMe; 5' NH2; 3' idT
B3: aptamer ID 3(21) (ssRNA)
RNA: B1 RNA with C1G, G36C
modifications: 2'-F at U8,U16,U21,U28,U30; 2'-OH at G12,G27,G29; all others 2'-OMe; 5' PEG 40K (GL2-400TS)-C6; 3' idT

Tests used:
Conditions in all cases: tags: Peprotech
FGF2 [1] = molecular target: T1, FGF2 (Homo sapiens, UniProt P09038 P09038:135-288); assay: cell_activity; HUVEC proliferation
Procedure: (§1) Human umbilical vein endothelial cells (HUVEC) were seeded in a 96 well flat bottom plate at 5×10³ cells per well, and cultured overnight using a medium EGM-2 Bullet Kit for endothelial cells (CC-3162 manufactured by Lonza) containing 2% fetal bovine serum and growth factors. Thereafter, the medium was discarded, the cells were washed twice with PBS buffer, and a mixture of the aptamer shown by aptamer ID 3(21) (5, 2.5, 1, 0.5 nM) and FGF2 (final concentration 0.5 nM), dissolved in a medium exclusively for endothelial cells containing 2% fetal bovine serum, was added. After 72 hr, viable cell number was examined using Cell Counting Kit-8. For the measurement of absorbance, a microplate reader (450 nm) was used. One sample was measured at n=3. As a positive control, anti-FGF2 antibody Anti-FGF, basic (Ab-3) Mouse mAb (3H3) (manufactured by Calbiochem) were used. With the OD value per well obtained by the addition of FGF2 alone and culture of the cells for 3 days as inhibitory activity 0%, and that of the cell obtained by FGF2 free culture for 3 days as inhibitory activity 100%, the inhibitory activity of the aptamer was calculated from the OD value per well obtained by culturing with the addition of a mixture of FGF2 and the aptamer. As a result, it was shown that the aptamer shown by aptamer ID 3(21) has a high inhibitory activity against FGF2.
By a method similar to that in Example 5, the inhibitory activity of the aptamers shown by aptamer IDs 8-12 was measured.

FGF2 [2] = molecular target: T1, FGF2; assay: inhibition; SPR inhibition of FGF2-FGFR1alpha(IIIc); each 0.1 uM
Procedure: BIAcore2000 manufactured by BIAcore was used for the measurement. As directed in BIAcore Company's protocol, Protein A (21181, manufactured by PIERCE) was immobilized on a CM5 sensor chip. About 1,000 RU of human FGFR1α (IIIc), R2α (IIIc), R3 (IIIc), R4 (manufactured by R&D Systems) fused with the Fc portion of IgG (manufactured by R&D systems) was each immobilized thereon. As analyte, a mixture of FGF2 (0.1 μM), heparin (0.1 μM) (manufactured by Pfizer) and aptamer (0.15 μM) was flown. Before an inhibitory test, a mixture of FGF2 and heparin was confirmed to bind to 4 kinds of receptors. […] A sensorgram showing that the aptamer shown by aptamer ID 1 inhibits binding of FGF2 and FGFR1α(IIIc), 2α(IIIc), 3(IIIc), 4 is shown in FIG. 2.
In addition, the inhibitory rate against each of the 4 kinds of receptors was determined. The inhibitory rate was determined with the maximum binding amount of the FGF2 and heparin mixture as 0, and the binding amount with an injection buffer alone as 100. The binding amount here means the RU value of the peak top of sensorgram. The inhibitory rate was calculated. […] The inhibitory rate of other aptamers was not more than 50%.
To enhance FGF2-binding activity, stability, drug deliverability and the like, the nucleic acids shown by aptamer IDs 3(1)-3(40), aptamer IDs 4 and 4(1)-4(4), aptamer ID 5 and aptamer ID 6 were chemically synthesized based on the aptamer shown in SEQ ID NO: 3. Here, the aptamer shown by aptamer ID 4 is the aptamer shown by aptamer ID 3(19) wherein one G(M) at the 5′-terminal and one C(M) at the 3′-terminal have been deleted. The aptamer shown by aptamer ID 5 is the aptamer shown by aptamer ID 3(19) wherein one G(M) has been added at the 5′-terminal and one C(M) has been added at the 3′-terminal. The aptamer shown by aptamer ID 6 is the aptamer shown by aptamer ID 3(19) wherein A(M) alone has been added at the 5′-terminal. These nucleic acids were produced by chemical synthesis.

FGF2 [3] = molecular target: T1, FGF2; assay: cell_activity; HUVEC proliferation, FGF2 0.5 nM
Procedure: as §1

FGF2 [4] = molecular target: T1, FGF2; assay: cell_activity; HUVEC proliferation, FGF2 0.58 nM
Procedure: as §1
By a method similar to the above except that the 96 well flat bottom plate was changed to a collagen-coated one, the activity of various aptamers was evaluated. The concentration of FGF2 added was 0.58 nM. As a negative control RNA, Macugen (registered trade mark) sequence without addition of PEG, and with C6 modification of the 5′-terminal and idT modification of the 3′-terminal was used.

T1 sequence (P09038 135-288, one chain of several): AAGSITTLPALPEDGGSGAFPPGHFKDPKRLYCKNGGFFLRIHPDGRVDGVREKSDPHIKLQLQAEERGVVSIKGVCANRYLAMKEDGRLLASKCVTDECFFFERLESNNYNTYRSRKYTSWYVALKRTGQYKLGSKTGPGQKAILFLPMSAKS

| Binder | IC50 (FGF2 [1]) | activity (FGF2 [2]) | IC50 (FGF2 [3]) | IC50 (FGF2 [4]) |
| --- | --- | --- | --- | --- |
| B1 | 5.6 nM | – | – | – |
| GGGAUACUAGGGCAUUAAUGUUACCAGUGUAGUCCC (ssRNA, 2'-F at U8,U16,U21,U28,U30; 2'-OH at G12,G27,G29; all others 2'-OMe; 3' idT) [aptamer ID 3(19)] | 3.4 nM | 93% | – | – |
| B2 | 3.7 nM | – | – | – |
| B3 | – | 97% | ~1 nM | – |
| GGGAUACUAGGGCGUUAACGUUACCAGUGUAGUCCC (ssRNA, 2'-F at U8,U16,U21,U28,U30; 2'-OH at G12,G27,G29; all others 2'-OMe) [aptamer ID 10] | 4.9 nM | – | – | – |
| GGGAUACUAGGGCCUUAAGGUUACCAGUGUAGUCCC (ssRNA, 2'-F at U8,U16,U21,U28,U30; 2'-OH at G12,G27,G29; all others 2'-OMe) [aptamer ID 11] | 13 nM | – | – | – |
| GGGAUACUAGGGCAUUUAUGUUACCAGUGUAGUCCC (ssRNA, 2'-F at U8,U16,U21,U28,U30; 2'-OH at G12,G27,G29; all others 2'-OMe) [aptamer ID 12] | 2.3 nM | – | – | – |
| AGGGAUACUAGGGCAUUAAUGUUACCAGUGUAGUCCC (ssRNA, 2'-F at U9,U17,U22,U29,U31; 2'-OH at G13,G28,G30; all others 2'-OMe; 3' idT) [aptamer ID 6] | – | 93% | – | 3.1 nM |
| GGGGAUACUAGGGCAUUAAUGUUACCAGUGUAGUCCCC (ssRNA, 2'-F at U9,U17,U22,U29,U31; 2'-OH at G13,G28,G30; all others 2'-OMe; 3' idT) [aptamer ID 5] | – | 94% | – | 2.6 nM |
